We go through 14 molecules from patent publication US20230398218A1, “RAS NEOANTIGENS AND USES THEREOF” (priority 2020, published 2023).

Holding throughout (details): remark: other sources report otherwise
For experiment [1], the target named is HLA-A02.01 (human). The experiment can be described thus: pMHC-I complex dissociation at 37 C, radiolabeled b2m.
Experiment [2] concerns the target HLA-A24.02 (human). Described as above.
Experiment [3] addresses HLA-A02.01 (human). Briefly: competition with radiolabeled reference peptide on prepared MHC class I.
Experiment [4] has as its target HLA-A24.02 (human). The experiment is described as above.
For experiment [5], the target named is HLA-A01.01 (human). The experiment can be described thus: pMHC-I complex dissociation at 37 C, radiolabeled b2m.
The target in experiment [6] is HLA-A01.01 (human). The experiment can be described thus: competition with radiolabeled reference peptide on prepared MHC class I.
Experiment [7] has as its target HLA-B07.02 (human). Briefly: pMHC-I complex dissociation at 37 C, radiolabeled b2m.
Experiment [8] has as its target HLA-B07.02 (human). Briefly: competition with radiolabeled reference peptide on prepared MHC class I.

On to VQLIMQLMPF, for which the Stability (half-life (hr.)) in experiment [1] and in experiment [2] was 0 min each time. Besides, the Affinity in experiment [3] came out at 4940 nM; in experiment [4], 4.1 µM.
In experiment [5], LTSTVQLIM showed a Stability (half-life (hr.)) of 6.22 min. Moreover, the Affinity in experiment [6] worked out at 2.89 µM.
Take QLIMQLMPF: the Stability (half-life (hr.)) in experiment [1] amounted to 20.4 min; in experiment [2] it was 22.1 min. The same molecule had an Affinity in experiment [3] of 193 nM.
IMQLMPFGCL: the values for the Stability (half-life (hr.)) in experiment [1] and in experiment [2] were 30.9 min and 0 min, respectively. For the same molecule, the figures for the Affinity in experiment [3] and in experiment [4] were 653 nM and 14.1 µM, respectively.
For MQLMPFGCL, the Stability (half-life (hr.)) in experiment [1] came out at 22.1 min; in experiment [7] it was 0 h. Besides, the Affinity turned out to be 116 nM in experiment [3] and 1590 nM in experiment [8].
QLIMQLMPFG registered a Stability (half-life (hr.)) in experiment [1] of 0 min. The same molecule yielded an Affinity in experiment [3] of 5210 nM.
With MANGSLLNYL, the Stability (half-life (hr.)) is 0 min in experiment [1] and 0 h in experiment [7]. The molecule further showed an Affinity in experiment [3] of 1010 nM.
For the molecule SLLNYLREM, the results for the Stability (half-life (hr.)) in experiment [1] and in experiment [7] were 183 min and 0 h, respectively. Further, the Affinity was 67.7 nM in experiment [3] and 866 nM in experiment [8].
LIMQLMPFG had a Stability (half-life (hr.)) in experiment [1] of 0 min. The Affinity in experiment [3] was determined as 3340 nM.
For the molecule MQLMPFGCLL, the figures for the Stability (half-life (hr.)) in experiment [1] and in experiment [2] were 22.9 min and 0 min, respectively. Moreover, the Affinity in experiment [3] is 16.3 nM; in experiment [4], 18.9 µM.
As to YMANGSLLN, the Stability (half-life (hr.)) in experiment [1] came to 0 min. In experiment [3], the Affinity is 4000 nM.
The corresponding values for IMQLMPFGC are 22.2 min and 1210 nM.
Turning to CLTSTVQLIM, the Stability (half-life (hr.)) in experiment [5] and in experiment [1] was 0 min throughout. Besides, the Affinity in experiment [6] was 8.28 µM; in experiment [3], 537 nM.
In experiment [1], STVQLIMQL came in with a Stability (half-life (hr.)) of 0 min. Also, the Affinity in experiment [3] turned out to be 7260 nM.
